The results in this text go back to paper PMC4923858.

The experiment concerns the target T1, TβRII-GFP, P37173.
T1 chain: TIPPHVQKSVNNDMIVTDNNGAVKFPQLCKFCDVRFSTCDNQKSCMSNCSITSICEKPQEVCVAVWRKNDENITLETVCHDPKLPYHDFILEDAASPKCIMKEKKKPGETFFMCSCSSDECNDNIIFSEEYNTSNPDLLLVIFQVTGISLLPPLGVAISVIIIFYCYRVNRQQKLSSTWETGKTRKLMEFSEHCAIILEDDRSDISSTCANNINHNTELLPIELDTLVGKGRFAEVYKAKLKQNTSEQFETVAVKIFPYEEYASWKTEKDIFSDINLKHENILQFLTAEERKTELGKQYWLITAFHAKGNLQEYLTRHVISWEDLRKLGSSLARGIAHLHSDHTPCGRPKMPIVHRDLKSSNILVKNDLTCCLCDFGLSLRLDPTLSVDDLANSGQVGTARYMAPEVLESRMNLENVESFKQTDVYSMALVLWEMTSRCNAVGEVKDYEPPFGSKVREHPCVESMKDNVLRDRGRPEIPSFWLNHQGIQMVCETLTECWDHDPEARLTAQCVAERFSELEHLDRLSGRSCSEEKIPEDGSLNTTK
Nature of the experiment: single-molecule photobleaching step counting (TIRFM); TβRII-GFP on the membrane of fixed HeLa cells 4 h after transfection; after TGF-β1 10 ng/mL for 15 min at 37 °C; room temperature. The settings on record: remark: other sources report otherwise.

B1: TβRII-GFP, P37173 23-567 (receptor)
chain: TIPPHVQKSVNNDMIVTDNNGAVKFPQLCKFCDVRFSTCDNQKSCMSNCSITSICEKPQEVCVAVWRKNDENITLETVCHDPKLPYHDFILEDAASPKCIMKEKKKPGETFFMCSCSSDECNDNIIFSEEYNTSNPDLLLVIFQVTGISLLPPLGVAISVIIIFYCYRVNRQQKLSSTWETGKTRKLMEFSEHCAIILEDDRSDISSTCANNINHNTELLPIELDTLVGKGRFAEVYKAKLKQNTSEQFETVAVKIFPYEEYASWKTEKDIFSDINLKHENILQFLTAEERKTELGKQYWLITAFHAKGNLQEYLTRHVISWEDLRKLGSSLARGIAHLHSDHTPCGRPKMPIVHRDLKSSNILVKNDLTCCLCDFGLSLRLDPTLSVDDLANSGQVGTARYMAPEVLESRMNLENVESFKQTDVYSMALVLWEMTSRCNAVGEVKDYEPPFGSKVREHPCVESMKDNVLRDRGRPEIPSFWLNHQGIQMVCETLTECWDHDPEARLTAQCVAERFSELEHLDRLSGRSCSEEKIPEDGSLNTTK
B1 gave a percent of spots bleaching in one step (monomers), after TGF-β1 of 67.7%; a percent of spots bleaching in three steps, after TGF-β1 of 0.6%; a percent of spots bleaching in two steps (dimers), after TGF-β1 of 31.6%.
